Laboratory results as given in the nanobody polyreactivity screen of Harvey et al. (2022).

Test: yeast display, Sf9 membrane polyspecificity reagent, FACS + sequencing; frameworks hold sequencing errors
Summary of the method: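 Genes from sorted yeast were amplified by colony PCR, read by MiSeq 2 × 250 sequencing and filtered on CDR length. These cells carried a synthetic nanobody library in Saccharomyces cerevisiae BJ5465 and were sorted by FACS into low and high (top ~1%) gates on anti-HA and streptavidin fluorescence. Polyreactivity is labelled according to the gate of origin.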

Row | Sequence | polyreactivity (PSR sort gate)
1 | QVQLVESGGGLVQAGGSLRLSCAASGSTFYTNAMGWYRQAPGKERELVAAISGSGGSTNYADSVKGRFTISRDNAKNTVYLQMISLKPEDTAVYYGAADGSNYSGSVAAFPYRVDYWGQGTQVNVSS | low polyreactivity
2 | QVQLVESVGGLVQAGGSLRLSCAASGFTFTYNAMGWYRQAPGKERELVAAISRNGGRTYYADSVKGRFTISRDNAKNTVYLQMNSLKPEDTAVYYCNAVYYYYYWRVSIYDYWGQGTQVTVSS | high polyreactivity
3 | QVQLVESGGGLVQAGGSLRLSCAASGRTFAIYAMGWYRQAPGIEREFVAAISWSGGDTYYADSVKGRFTISRDNAKNTVYLQMNSLKPEDTAVYYCAARDNDYEGRDLQYELDYWGQGTHVTVSS | low polyreactivity
4 | QVQLVESGGGLVQAGGSLRLSCAASGSIFYGYAMGWYRQAPGKEREFVAGIDSSGGSTSYADSVKGRFTISRDNAKNTVYLQMNSLKPEDTAVYYCNAPDPSDQHGDYWGQGTQVTVSS | low polyreactivity
5 | QVQLVESGGGLVQAGGSLRLSCAASGFIFRVNAMGWYRQAPGKERELVAAISRRGGSTYYADSVKGRFTISRDNAKNTVYLQMNSLKPEDTAVYYCAVKGASYPAYRGYDYWGQGTQVTVSS | high polyreactivity
6 | QVQLVESGGGLVQAGGSLRLSCAASGFTSNEYAMGWYRPAAGTERELVAAISKSGGRTYYADSVKGRFTISRDNAKNTVYLQMNSLKPEDTAVYYCGKRRNTTYYAGGFDYWGQGTKVTVSS | high polyreactivity
7 | QVQLQESGGGLVLAGGSLRLSCSASGNNSVYGSMGWYRQAPGKEREFVATIDPGTNTNYADSVKDRFTISRDNAKNTVYLQMNSLKPEDTAVYYCAVEAGSDWPYRYWGQGTQVTVSS | low polyreactivity
8 | QVKLVESGGGLVQAGGSLSLSCAASARIFSAYAMGWYRQAPGKEMELVAAISYSGGSTYYADSVKGRFTIARDNAKNTVYLQMNSLKPEDTADYYCAADTVYGYQWGQGTQVTVSS | low polyreactivity
9 | QVQLVESGGGLVQAGGSLRLSCAASGSIFTQNAMGWYRQAPGKERELVAGISDGDSTNYADSVKGRFTISRDNAKNTVYLQMNSLKPEDTAVYYCNAQGTTETSGGGFFRGMDYWGQGTQVTVSS | low polyreactivity
10 | QVQLVESGGCLDQAGGSLRLSCAASGRIFNSNTMGWYRQAPGKERELVAAITYSGGSTYYADSVKGRFTISRDNAKNTVYLQMNSLKPEDTAVYYCAADFWEYDGPWYANDYYSWGQGTQVTVSS | low polyreactivity
11 | QVQIVESGGGLVQAGRSLSLSCAASGYTFLPNVMGWYRQAPGKERELVAAIYSRGGRTYYADSVKGRFTISRDNAKNTVYLQMNSLKPEDTAVYYCAAYTRYTTGSAGIYRDDYWGQGTQVTVSS | high polyreactivity
12 | QVQLVESGGGLVQAGGSLRLSCAASGRIFKWYAMGWYRQAPGKERELVAVITVSGGSTTYADSVKGRFTISLDNAKNTVYLQMNSLKQEDTAVYYCNAVYYRSRFGTSIRYDYWGQGTQVTVSS | high polyreactivity
13 | QVQLVESGGGLVQAGGSLRLSCAASGGTFYRYAMGWYRQAPGKERELVAAITDSGGSTYYADSVKGRFTISRDNAKNTVYLQMNSLKPEDTAVYYCAAEDIDYTDVTSGYEYWGQGTQVTVSS | high polyreactivity
14 | QVQLVESGGCLVQAGGSLRLSCAASGSIFTRYAMGWYRQAPGKERELVADIRWGGGDTYYADSVKGRFTISRDNAKNTVYLQMNSLKPEDTAVYYCNADFGAPNTGRPEVQNSDEFGYWGQGTQVTVSS | low polyreactivity
15 | QVQLVESGGGLVQAGGSQRLSCAASGRIFPGNAMGWYRQAPGKERELVAAIRWSGGSTYYADSVKGRFTISRDNAKNTVYLQMNSLKPEDTAVFYCAKDRGSVFKRKYYYWGQGTQVTVSS | low polyreactivity
16 | QVQLVESGGGLVQAGGSLRLSCAASGSIFSSYAMGGYRQAPGKEWELVAAISRRGGSTYYADSVKGRFTISRDNAKNTVYLQMNSLKPEDTAVYYCNADSAARKGWPIYGYWGQGTQVTVSS | high polyreactivity
17 | QVQLVESGGGLVQARGSLRVSCAASGSTFGRYAMGWYRQAPGKDRELVAAITGSGGSTYYADSVKGRFTISRDNAKNTVYLHMNSLKPEDTAVYYCAAPVDYRRYEYEYWGQGTQVTVSS | low polyreactivity
18 | QVQLVESGGGLVQAGGSLRLSCASSGSTFKYYAMGWYRQAPGKERELVAAISSGGSTYYADSVKGRFTISRDNAKNTVYLLMNSLKPEDTAVYDCAARGYYGNFSGSGYWGQGTQVTVSS | high polyreactivity
19 | QVQLVESGGGLVQAGGSLRLSCAASGLIFRQYPMGWYRQAPGKERELVAAITGSGGRTYYADSVKGRFTISRDNAKNTVYLQMNSLKPEDTAVYYCARPNLLSGDYWGQGTQVTVSS | high polyreactivity
20 | QVQLVESGGGLVQAGGSLRLSCAASGLIFWKYARGWYRQAPGKERELVAAIRKSVGSTYYADSVKGRFTISRDNAKNTVYLQMNSLKPEDTAVYYCAAVNAGVGSPVKRDYWGQGTQVTVSS | high polyreactivity
21 | QVQLVESGGGLVQAGGSLRLSCAASGSTYRPYAMGWYRQAPVKERELVAAISWSGGRTYYADSVKGRFTISRDNAKNNVYLPMNSLKPEDTAVYYCNRAGRQPKNTYDYWGQGTQVTVSS | high polyreactivity
22 | QVQLVESVGGLVQAGGSLRLSCAASGSTFAGYAMGWYRQAPGKERELVATITYSGGSTYYADSVKGRFTISRDNAKNTVYLQMNSLKPEDTEVYYCAKKASYWWGYEYWGQGTQVTVSS | low polyreactivity

Row | Sequence | polyreactivity (PSR sort gate)
23 | QVQLVESGGGLVQAGGSLRLSCAASGSTFFRYAMGWYRQAPGKERELVAAISWSGGTTYYADSVKGRFSISRDNAKNTVYLQMNSLKPEDTAVYFCNAVRQGHILDYWGQGTQVTVSS | low polyreactivity
24 | QVQLVESGGGLVLAGGSRRLSCASSGSTFPLYTMGWYRQAPGKERELVAAINYGGTSTYYADSVKGRFTFSRVKAKNTVYLQRNSLKPEDTAVYYCAAERYFLYLCRKFGYWGQGTQVTVSW | high polyreactivity
25 | QVQLVESGGGLVQAGGSLRLSCAASGFIFSYYAMGWYRQAPGKERELVAAMSSSGSRTYYADSVKGRFTISRDNAKNTVYLQMNSLKPEDTAVYYCAARGWFRGEFDYWGQGTQVTVSS | high polyreactivity
26 | QVQLVESGGGLVQAGGSLRLSCAASGYTFRSYAMGWYRQAPGKEWEFVASISSSGGSTYYADSVKGRFTISRDNAKNTVYLQMNSLKPEDTAVYYCAASVVSYPYDEYDYWGQGTQVTVSS | low polyreactivity
27 | QVQLVESGGGLVQPGGTLRLTCAGSGSILTGNAMRWYRQAPGKERELVAAITSGGSTYYADSVKGRFTISRDNAKNTVYLQMNSLNQADSAGYYCAASRWRPLERGTTWLHDYWGQGTQVTVSS | low polyreactivity
28 | QVQLVESGGGLVQAGGSLRLSCAASGSTFSYYAMVWYRQAPGKERELVADISSGGSTNYADSVKGRFTISRDNAKNTVYLQMNSLKPEDTAVYYCNRRYSYYDGFDYWGQGTQVTVSS | low polyreactivity
29 | QVQLVESGGGLVQAGGSLRLSCAASGSTFYLYAMGWYRQAPGKERELVASITYSGASTYYADSVKGRFTISRDNAKNTVYLQMNSQKPEDTAVYYCAADQRGWFAVGSQRKYNYWGQGTQVTVSS | low polyreactivity
30 | QVQLVESGGGLVQAGGSLRLSCAASGIIFGIYDMGWSRQAPGKERELVAAIRRSGGSTYYADSVKGRFTISRDNAKNTVYLQMNSLKPEDTAVYYCAATRHSRVRGGDYWGQGTQVTVSS | low polyreactivity
31 | QVQLVESGGGLVQAGGSLRLSCASSARIFFWYTMGWYSQAPGKERELVAAITSSGNTNYADSVKGRFTISRDNAKNTVYLQMNSLKPEDTAVYYCATGSYSYYSLFDYWGQGTQVTVSS | low polyreactivity
32 | QVQLVESGGGLVQEGGSLRLSCAASGIIFRVYAMGWYRQAPGKERELVATITYSGGITYYADSVKGRFTISRVNAKNTVYLQMNSLKQEDTAGYYPIGVGGDYDYWGQGTQVSVSS | low polyreactivity
33 | QVQLVESGGGLVQAGGSLRLSCAASGRTFGRYVMGWYRQAPGKERELVAAISKGGTSPYYADSVKGRFTISRDNAKNTVYLQMNSLKPEDTAVYYCAAGSFARYTYVPRYDYWGQGTQVTVSS | high polyreactivity
34 | QVQLVESGGLLVQAGGSIRLRCDASGIILRGYSLGWYRQAPGKERELVASISRGGSTNYADSVKGRFTISRDNAKTTVYLQMNSLKPEDTAVYSCNARGCNGRSDYDYWGLGTQVTVSS | high polyreactivity
35 | QVQLQESGGGLVQAGGSLRLSCAASGYISYFVGMGWYRQAPGKEREFVASIADGSYTYYADSVKGRFTISRDNAKNTVYLQRNSLKPEDTAVYYCAVEDSWTYRFDYWGQGTQVTVSS | high polyreactivity
36 | QVQLVESGGGLVQAGGRLRLSCATSGYIFYDYDMGWYRQAPGKERELVAAIRRSTGTTYYADSVKGRFTISRDNEKNTVYLLMISLKPESTAVYYCAALFRPRVHRYDYWGQGTQVTVSS | low polyreactivity
37 | QVQLVESGRGLVQAGGILRLFCAASGSTFVSYAIAWYRQAPGKERELVAAISRSGGSTYYADSVKGRFTISRDNAKNTVYLQMNSLKTEDTAVYYCAAVRYWSDYDYWGQGTKVTVSS | high polyreactivity
38 | QVQLVESGGGLVQAGGSLRLSCAASGSIFRYYAMGWYRQAPGKERELVAAISGDSGRTYYADSVKGRFTISRDNAKNTVYFQMNSLKPEDTAVYYCNARVAYRYRTGYDYWGQGTQVTVSS | high polyreactivity
39 | QVQLVESGGGLVQAGGSLRLSCAASGSIFTSNAMGWYRQAPGKEWELVAAITSDGAITYADSVKRRFTISRDNAKNTVYLQMNTLKPEDTAVYYCAARIRQNPGGDNSWGQGTQVTVSS | low polyreactivity
40 | QVQLVESGGGLVQAGGSLRLSCAASGRIFWQYAMGWYRQAPGNERELVAGITSNGGSTYYADSVKGRFTISRDNAKNTVYLQMNSLKPEDTAVYYCNKVRPGWTYEYGYWGQGTQVTVSS | high polyreactivity
41 | QVQLQESGGGLLQAGGTLRLSCAASGSIFGYSGMGWYRQAPGKERELVAGIDYGTITNYADSVKGRFTISRDNAKNTVYLQKYSLKPADTAVYYCATDIHSVHNHRDKHVYDYWGQGTQVTVSS | low polyreactivity
42 | QFQLVESGGGLVQAGGSLRLSCAASVSTVVIYDMGWYRQAPGKERELVAAISYSGGSTYYADSVKGRFTITRDNAKNTVYLQMNSLKPEDTAVYYCNAGVLVLLYAYLPSDLEYWGQGTQVTVSS | low polyreactivity
43 | QVQLVESGGGLVQAGGSLRLSCAASGSTFVRNAMGWYRQEPGKERELVANISSGGGTKYADSVKGRFTISRDNAQNTVYLQMNSLKPEDTAVYYCAKRTIYSGRFYYWGQGTQVTVSS | high polyreactivity
